Data set [1] has as its target T1, alpha-thrombin (Homo sapiens, UniProt P00734;P00734 P00734:328-363,P00734:364-622). Kind of data set: FP; 140 mM NaCl, 20 mM Tris acetate, 1 mM CaCl2, 5 mM KCl, 1 mM MgCl2, pH 7.4, room temperature; delta mP +52.
The target of data set [2] is T2, serum albumin (HSA) (Homo sapiens, UniProt P02768 P02768:25-609). As to the kind of experiment: FP; HSA up to 247 nM; anisotropy 0.04429 free, 0.04433 with HSA. The settings on record: tags: Sigma; label: 5'-fluorescein (6-FAM, C6 linker).
Data set [3] deals with T2, serum albumin (HSA). As to the kind of experiment: FP; HSA up to 660 nM. To be noted: tags: Sigma; label: 5'-thiazole orange (C3 linker). How it is done: (§1) The fluorescence polarization of the reaction mixtures was measured directly using 12×75 mm borosilicate glass test tubes. The maximum change in fluorescence polarization was reported as ΔmP (millipolarization units). As reported below in Table 1, the data represent the average of three readings at ambient temperature.

Data set [4] has as its target T1, alpha-thrombin. As to the kind of experiment: FP; 140 mM NaCl, 20 mM Tris acetate, 1 mM CaCl2, 5 mM KCl, 1 mM MgCl2, pH 7.4, room temperature; delta mP +80.
The target of the next data set is neutrophil elastase (Homo sapiens, UniProt P08246 P08246:30-267). Kind of data set: FP; 150 mM NaCl, 2 mM MgCl2, 6 mM KCl, 10 mM Tris, pH 7.0, room temperature; delta mP +30. To be noted: tags: Athens Research Technology; label: 5'-fluorescein (6-FAM, C6 linker). How it is done: An elastase solution was prepared from human neutrophil elastase (Athens Research Technology) at 180 nM for the highest concentration in a buffer of 150 mM NaCl, 2 mM MgCl_2, 6 mM KCl, 10 mM TRIS, pH 7.0. Serial dilutions of this solution were then prepared to give a range of concentrations from 0.027 nM to 180 nM.
as §1

The target of data set [5] is T1, alpha-thrombin. As to the kind of experiment: FP; 140 mM NaCl, 20 mM Tris acetate, 1 mM CaCl2, 5 mM KCl, 1 mM MgCl2, pH 7.4, room temperature; delta mP +55.
For data set [6], the target named is T2, serum albumin (HSA). As to the kind of experiment: FP; HSA up to 1080 nM. To be noted: tags: Sigma; label: fluorescein tethered at the T7 phosphorothioate via iodoacetamide. How it is done: A thrombin solution was prepared at 600 nM for the highest concentration in the same buffer as was used for Compound 1 in Example 3. Serial dilutions of this solution were then prepared to give a range of concentrations from 0.045 nM to 600 nM.
Compound 6 was then added to a sample of each dilution of thrombin solution and HSA solution to a concentration of 2.3 nM, then vortexed and let stand at room temperature for 15 minutes before fluorescence measurement was taken as described in Example 3. The data from the measurements is presented below as the average of three readings at ambient temperature.

For data set [7], the target named is T1, alpha-thrombin. Kind of data set: FP; 140 mM NaCl, 20 mM Tris acetate, 1 mM CaCl2, 5 mM KCl, 1 mM MgCl2, pH 7.4, room temperature; delta mP +25.
The target of data set [8] is T2, serum albumin (HSA). Kind of data set: FP; HSA up to 150 nM. The settings on record: tags: Sigma; label: 5'-fluorescein (6-FAM, C6 linker). How it is done: as §1
Data set [9] addresses T1, alpha-thrombin. As to the kind of experiment: FP; no detectable binding; anisotropy 0.0403 free, 0.0445 with thrombin.
In data set [10] the target is T2, serum albumin (HSA). Kind of data set: FP; no detectable binding by fluorescence anisotropy. To be noted: tags: Sigma; label: fluorescein (C6 linker). How it is done:
Compound 4 was the control prepared in Example 1, and as such was added to the thrombin dilutions and HSA dilutions at the same respective concentrations of Compounds 1, 2 and 3 above. Similarly, Compound 4 was then subjected to the same conditions as Compounds 1, 2 and 3, and analyzed with an SLM instrument to determine anisotropy values as described in Example 4 below.

Sequence of neutrophil elastase (P08246 30-267, one chain of several): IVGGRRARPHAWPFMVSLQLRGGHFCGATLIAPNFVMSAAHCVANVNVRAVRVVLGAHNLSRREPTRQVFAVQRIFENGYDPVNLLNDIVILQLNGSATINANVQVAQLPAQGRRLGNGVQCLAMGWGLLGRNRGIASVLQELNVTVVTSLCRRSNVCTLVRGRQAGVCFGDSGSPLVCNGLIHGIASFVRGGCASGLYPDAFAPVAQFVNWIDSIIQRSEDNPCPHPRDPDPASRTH

Take GGTTGGTGTGGTTGG (ssDNA) [Compound 1]: in the data set with alpha-thrombin [1], binding was characterised by a dissociation constant (Kd) of 2 nM. For the same molecule, the binding result in the data set with serum albumin (HSA) [2] is recorded as “no binding”.

Consider GGTTGGTGTGGTTGG (ssDNA) [Compound 3], for which, in the data set with serum albumin (HSA) [3], the binding result is listed as “no binding”. Besides, the Kd with alpha-thrombin [4] is 5.7 nM.

For TAGCGATACTGCGTGGGTTGGGGCGGGTAGGGCCAGCAGTCTCGT (ssDNA) [Compound 5], the equilibrium dissociation constant (Kd) in the data set with neutrophil elastase amounted to 2.6 nM.

On to GGTTGGTGTGGTTGG (ssDNA, PS between G6 and T7) [Compound 6], for which, in the data set with alpha-thrombin [5], the Kd turned out to be 11.1 nM. Besides, in the data set with serum albumin (HSA) [6], the binding result was “no binding”.

Regarding CAGTCCGTGGTAGGGCAGGTTGGGGTGACTTCGTGGAA (ssDNA) [Compound 2], in the data set with alpha-thrombin [7], binding was put at a Kd of 1.5 nM. The binding result in the data set with serum albumin (HSA) [8] is “no binding”.

GGTGGTGGTTGTGGT (ssDNA) [Compound 4 (scrambled control)]: the binding result in the data set with alpha-thrombin [9] and with serum albumin (HSA) [10] was “no binding” each time.

The values are drawn from patent US5641629, “Spectroscopically detectable nucleic acid ligands”.
